Measured values as given in patent US20120034160A1 (AbbVie / Abbott, published 2012).

T1: Recombinant Human IL-17 (human, UniProt Q16552 20-155, limits assumed)
T1 sequence (looked up): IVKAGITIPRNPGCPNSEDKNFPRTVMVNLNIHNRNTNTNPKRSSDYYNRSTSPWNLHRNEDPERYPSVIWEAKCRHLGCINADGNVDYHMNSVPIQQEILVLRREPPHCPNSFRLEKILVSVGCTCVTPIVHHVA


What was measured:
Recombinant Human IL-1β [1] = target: T2, Recombinant Human IL-1β (human, UniProt P01584 117-269); experiment: cell-based or functional assay
Recombinant Human IL-17 [2] = target: T1, Recombinant Human IL-17; experiment: cell-based or functional assay
Recombinant Human IL-1β [3] = target: T2, Recombinant Human IL-1β; experiment: Biacore SPR; C-terminal VD
Summary of the method: (§1)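 SPR, 25° C, HBS-EP (10 mM HEPES pH 7.4, 150 mM NaCl, 3 mM EDTA, 0.005% P20). Capture via anti-mouse IgG Fcγ chip; analyte 10−200 nM at 25 μl/min. 1:1 Langmuir global fit; KD = koff/kon.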

Recombinant Human IL-17 [4] = target: T1, Recombinant Human IL-17; experiment: Biacore SPR; N-terminal VD
Summary of the method: as §1

Recombinant Human IL-17 [5] = target: T1, Recombinant Human IL-17; experiment: Biacore SPR; C-terminal VD
Summary of the method: as §1

Recombinant Human IL-1β [6] = target: T2, Recombinant Human IL-1β; experiment: Biacore SPR; N-terminal VD
Summary of the method: as §1

Row | Binder | C-Terminal VD IL-1β Neutralization Assay EC50 (Recombinant Human IL-1β [1]) | N-terminal VD IL-17 Neutralization Assay EC50 (Recombinant Human IL-17 [2]) | Kd (Recombinant Human IL-1β [3]) | koff (Recombinant Human IL-1β [3]) | kon (Recombinant Human IL-1β [3]) | Kd (Recombinant Human IL-17 [4]) | koff (Recombinant Human IL-17 [4]) | kon (Recombinant Human IL-17 [4]) | N-Terminal VD IL-1β Neutralization Assay EC50 (Recombinant Human IL-1β [1]) | C-terminal VD IL-17 Neutralization Assay EC50 (Recombinant Human IL-17 [2]) | Kd (Recombinant Human IL-17 [5]) | koff (Recombinant Human IL-17 [5]) | kon (Recombinant Human IL-17 [5]) | Kd (Recombinant Human IL-1β [6]) | koff (Recombinant Human IL-1β [6]) | kon (Recombinant Human IL-1β [6])
1 | DVD1634 (bispecific antibody, human IgG1, kappa, DVD-Ig: outer AB274, inner AB270; V1/V2 vectors: wild type hIgG1, kappa) heavy: not shown light: EIVLTQSPDFQSVTPKEKVTITCRASQDIGSELHWYQQKPDQPPKLLIKYASHSTSGVPSRFSGSGSGTDFTLTINGLEAEDAGTYYCHQTDSLPYTFGPGTKVDIKRTVAAPDTQVTQSPSSLSASVGDRVTITCITSTDIDVDMNWYQQKPGKPPKLLISQGNTLRPGVPSRFSSSGSGTDFTFTISSLQPEDFATYYCLQSDNLPLTFGQGTKLEIKRTVAAPSVFIFPPSDEQLKSGTASVVCLLNNFYPREAKVQWKVDNALQSGNSQESVTEQDSKDSTYSLSSTLTLSKADYEKHKVYACEVTHQGLSSPVTKSFNRGEC | > 12 nM | 0.0241 nM | 0.63 nM | 0.00055 s⁻¹ | 870000 M⁻¹ s⁻¹ | 5.2 pM | 1.9e-05 s⁻¹ | 3.7e+06 M⁻¹ s⁻¹ |  |  |  |  |  |  |  | 
2 | DVD1636 (bispecific antibody, human IgG1, kappa, DVD-Ig: outer AB274, inner AB271; V1/V2 vectors: wild type hIgG1, kappa) heavy: not shown light: EIVLTQSPDFQSVTPKEKVTITCRASQDIGSELHWYQQKPDQPPKLLIKYASHSTSGVPSRFSGSGSGTDFTLTINGLEAEDAGTYYCHQTDSLPYTFGPGTKVDIKRTVAAPDTVVTQSPAFLSVTPGEKVTITCITSTDIDVDMNWYQQKPDQPPKLLISQGNTLRPGVPSRFSSSGSGTDFTFTISSLEAEDAATYYCLQSDNLPLTFGQGTKLEIKRTVAAPSVFIFPPSDEQLKSGTASVVCLLNNFYPREAKVQWKVDNALQSGNSQESVTEQDSKDSTYSLSSTLTLSKADYEKHKVYACEVTHQGLSSPVTKSFNRGEC | 27.1 nM | 0.0075 nM | 0.6 nM | 0.00063 s⁻¹ | 1e+06 M⁻¹ s⁻¹ | 4.6 pM | 1.9e-05 s⁻¹ | 4.1e+06 M⁻¹ s⁻¹ |  |  |  |  |  |  |  | 
3 | DVD1645 (bispecific antibody, human IgG1, kappa, DVD-Ig: outer AB271, inner AB275; V1/V2 vectors: wild type hIgG1, kappa) heavy: not shown light: DTVVTQSPAFLSVTPGEKVTITCITSTDIDVDMNWYQQKPDQPPKLLISQGNTLRPGVPSRFSSSGSGTDFTFTISSLEAEDAATYYCLQSDNLPLTFGQGTKLEIKRTVAAPEIVLTQSPDFQSVTPKEKVTITCRASQNIGSELHWYQQKPDQSPKLLIKYASHSISGVPSRFSGSGSGTDFTLTINGLEAEDAATYYCHQSDTLPHTFGQGTKVDIKRTVAAPSVFIFPPSDEQLKSGTASVVCLLNNFYPREAKVQWKVDNALQSGNSQESVTEQDSKDSTYSLSSTLTLSKADYEKHKVYACEVTHQGLSSPVTKSFNRGEC |  |  |  |  |  |  |  |  | 0.417 nM | 0.15 nM | 0.65 nM | 8.1e-05 s⁻¹ | 120000 M⁻¹ s⁻¹ | 0.08 nM | 0.00056 s⁻¹ | 7e+06 M⁻¹ s⁻¹
4 | DVD1639 (bispecific antibody, human IgG1, kappa, V1/V2 vectors: wild type hIgG1, kappa) heavy: not shown light: DIQMTQSPSSLSASVGDRVTITCRASGNIHNYLTWYQQTPGKAPKLLIYNAKTLADGVPSRFSGSGSGTDYTFTISSLQPEDIATYYCQHFWSIPYTFGQGTKLQITRTVAAPEIVLTQSPDFQSVTPKEKVTITCRASQNIGSELHWYQQKPDQSPKLLIKYASHSISGVPSRFSGSGSGTDFTLTINGLEAEDAATYYCHQSDTLPHTFGQGTKVDIKRTVAAPSVFIFPPSDEQLKSGTASVVCLLNNFYPREAKVQWKVDNALQSGNSQESVTEQDSKDSTYSLSSTLTLSKADYEKHKVYACEVTHQGLSSPVTKSFNRGEC |  |  |  |  |  |  |  |  | 0.0113 nM | 2.61 nM | ≤ 0.0028 nM | ≤ 1e-06 s⁻¹ | 370000 M⁻¹ s⁻¹ | 0.045 nM | 5.6e-05 s⁻¹ | 1.2e+06 M⁻¹ s⁻¹

The remaining lines, values ahead:

Row | C-Terminal VD IL-1β Neutralization Assay EC50 (Recombinant Human IL-1β [1]) | N-terminal VD IL-17 Neutralization Assay EC50 (Recombinant Human IL-17 [2]) | Kd (Recombinant Human IL-1β [3]) | koff (Recombinant Human IL-1β [3]) | kon (Recombinant Human IL-1β [3]) | Kd (Recombinant Human IL-17 [4]) | koff (Recombinant Human IL-17 [4]) | kon (Recombinant Human IL-17 [4]) | N-Terminal VD IL-1β Neutralization Assay EC50 (Recombinant Human IL-1β [1]) | C-terminal VD IL-17 Neutralization Assay EC50 (Recombinant Human IL-17 [2]) | Kd (Recombinant Human IL-17 [5]) | koff (Recombinant Human IL-17 [5]) | kon (Recombinant Human IL-17 [5]) | Kd (Recombinant Human IL-1β [6]) | koff (Recombinant Human IL-1β [6]) | kon (Recombinant Human IL-1β [6]) | Binder
5 |  |  |  |  |  |  |  |  | 0.24 nM | 0.127 nM | 0.14 nM | 4.9e-05 s⁻¹ | 360000 M⁻¹ s⁻¹ | 0.06 nM | 0.00045 s⁻¹ | 7.6e+06 M⁻¹ s⁻¹ | DVD1635 (bispecific antibody, human IgG1, kappa, DVD-Ig: outer AB271, inner AB274; V1/V2 vectors: wild type hIgG1, kappa) heavy: not shown light: DTVVTQSPAFLSVTPGEKVTITCITSTDIDVDMNWYQQKPDQPPKLLISQGNTLRPGVPSRFSSSGSGTDFTFTISSLEAEDAATYYCLQSDNLPLTFGQGTKLEIKRTVAAPEIVLTQSPDFQSVTPKEKVTITCRASQDIGSELHWYQQKPDQPPKLLIKYASHSTSGVPSRFSGSGSGTDFTLTINGLEAEDAGTYYCHQTDSLPYTFGPGTKVDIKRTVAAPSVFIFPPSDEQLKSGTASVVCLLNNFYPREAKVQWKVDNALQSGNSQESVTEQDSKDSTYSLSSTLTLSKADYEKHKVYACEVTHQGLSSPVTKSFNRGEC
6 |  |  |  |  |  |  |  |  | 0.0786 nM | 1.87 nM | 0.27 nM | 2.2e-05 s⁻¹ | 84000 M⁻¹ s⁻¹ | 0.018 nM | 1.9e-05 s⁻¹ | 1e+06 M⁻¹ s⁻¹ | DVD1641 (bispecific antibody, human IgG1, kappa, V1/V2 vectors: wild type hIgG1, kappa) heavy: not shown light: DIQMTQSPSSLSASVGDRVTITCRASGNIHNYLTWYQQTPGKAPKLLIYNAKTLADGVPSRFSGSGSGTDYTFTISSLQPEDIATYYCQHFWSIPYTFGQGTKLQITRTVAAPEIVLTQSPDFQSVTPKEKVTITCRASQNIGSELHWYQQKPDQSPKLLIKYASHSISGVPSRFSGSGSGTDFTLTINGLEAEDAATYYCHQSDTLPHTFGQGTKVDIKRTVAAPSVFIFPPSDEQLKSGTASVVCLLNNFYPREAKVQWKVDNALQSGNSQESVTEQDSKDSTYSLSSTLTLSKADYEKHKVYACEVTHQGLSSPVTKSFNRGEC
7 |  |  |  |  |  |  |  |  | 0.552 nM | 0.0271 nM | ≤ 0.0025 nM | < 1e-06 s⁻¹ | 230000 M⁻¹ s⁻¹ | 0.075 nM | 0.00059 s⁻¹ | 7.9e+06 M⁻¹ s⁻¹ | DVD1637 (bispecific antibody, human IgG1, kappa, DVD-Ig: outer AB272, inner AB274; V1/V2 vectors: wild type hIgG1, kappa) heavy: not shown light: ETTVTQSPSSLSASVGDRVTITCITSTDIDVDMNWYQQKPGKPPKLLISQGNTLRPGVPSRFSSSGSGTDFTFTISSLQPEDFATYYCLQSDNLPLTFGQGTKLEIKRTVAAPEIVLTQSPDFQSVTPKEKVTITCRASQDIGSELHWYQQKPDQPPKLLIKYASHSTSGVPSRFSGSGSGTDFTLTINGLEAEDAGTYYCHQTDSLPYTFGPGTKVDIKRTVAAPSVFIFPPSDEQLKSGTASVVCLLNNFYPREAKVQWKVDNALQSGNSQESVTEQDSKDSTYSLSSTLTLSKADYEKHKVYACEVTHQGLSSPVTKSFNRGEC
8 |  |  |  |  |  |  |  |  | 0.152 nM | 0.34 nM | 0.53 nM | 9e-05 s⁻¹ | 170000 M⁻¹ s⁻¹ | 0.083 nM | 0.00059 s⁻¹ | 7.1e+06 M⁻¹ s⁻¹ | DVD1647 (bispecific antibody, human IgG1, kappa, DVD-Ig: outer AB272, inner AB275; V1/V2 vectors: wild type hIgG1, kappa) heavy: not shown light: ETTVTQSPSSLSASVGDRVTITCITSTDIDVDMNWYQQKPGKPPKLLISQGNTLRPGVPSRFSSSGSGTDFTFTISSLQPEDFATYYCLQSDNLPLTFGQGTKLEIKRTVAAPEIVLTQSPDFQSVTPKEKVTITCRASQNIGSELHWYQQKPDQSPKLLIKYASHSISGVPSRFSGSGSGTDFTLTINGLEAEDAATYYCHQSDTLPHTFGQGTKVDIKRTVAAPSVFIFPPSDEQLKSGTASVVCLLNNFYPREAKVQWKVDNALQSGNSQESVTEQDSKDSTYSLSSTLTLSKADYEKHKVYACEVTHQGLSSPVTKSFNRGEC
9 |  |  |  |  |  |  |  |  | 0.465 nM | 0.121 nM | 0.52 nM | 9.4e-05 s⁻¹ | 180000 M⁻¹ s⁻¹ | 0.074 nM | 0.00048 s⁻¹ | 6.5e+06 M⁻¹ s⁻¹ | DVD1643 (bispecific antibody, human IgG1, kappa, DVD-Ig: outer AB270, inner AB275; V1/V2 vectors: wild type hIgG1, kappa) heavy: not shown light: DTQVTQSPSSLSASVGDRVTITCITSTDIDVDMNWYQQKPGKPPKLLISQGNTLRPGVPSRFSSSGSGTDFTFTISSLQPEDFATYYCLQSDNLPLTFGQGTKLEIKRTVAAPEIVLTQSPDFQSVTPKEKVTITCRASQNIGSELHWYQQKPDQSPKLLIKYASHSISGVPSRFSGSGSGTDFTLTINGLEAEDAATYYCHQSDTLPHTFGQGTKVDIKRTVAAPSVFIFPPSDEQLKSGTASVVCLLNNFYPREAKVQWKVDNALQSGNSQESVTEQDSKDSTYSLSSTLTLSKADYEKHKVYACEVTHQGLSSPVTKSFNRGEC
